B1: YFP- and HA-epitope tagged dopamine transporter (YFP-HA-DAT), wild type [human] / itself (parent)
chain: MSKSKCSVGLMSSVVAPAKEPNAVGPKEVELILVKEQNGVQLTSSTLTNPRQSPVEAQDRETWGKKIDFLLSVIGFAVDLANVWRFPYLCYKNGGGAFLVPYLLFMVIAGMPLFYMELALGQFNREGAAGVWKICPILKGVGFTVILISLYVGFFYNVIIAWALHYLFSSFTTELPWIHCNNSWNSPNCSDAHPGDSSGDSSGLNDTFGTTPAAEYFERGVLHLHQSHGIDDLGPPRWQLTACLVLVIVLLYFSLWKGVKTSGKVVWITATMPYVVLTALLLRGVTLPGAIDGIRAYLSVDFYRLCEASVWIDAATQVCFSLGVGFGVLIAFSSYNKFTNNCYRDAIVTTSINSLTSFSSGFVVFSFLGYMAQKHSVPIGDVAKDGPGLIFIIYPEAIATLPLSSAWAVVFFIMLLTLGIDSAMGGMESVITGLIDEFQLLHRHRELFTLFIVLATFLLSLFCVTNGGIYVFTLLDHFAAGTSILFGVLIEAIGVAWFYGVGQFSDDIQQMTGQRPSLYWRLCWKLVSPCFLLFVVVVSIVTFRPPHYGAYIFPDWANALGWVIATSSMAMVPIYAAYKFCSLPGSFREKLAYAIAPEKDRELVDRGEVRQFTLRHWLKV

Variants of: B1
Assay: SDS-PAGE and immunoblotting with the GFP antibody, quantification of trimer band
Conditions: AIM-100 20 μM, 2 h at 37 °C, PAE cells, read off a plot

Row | Variant | screen value (fraction of total)
1 | chain 1 I248F V249T L458F L459G | 0.3

Same assay, conditions: AL3 20 μM, 2 h at 37 °C, PAE cells, read off a plot

Row | Variant | screen value (fraction of total)
2 | chain 1 I248F V249T L458F L459G | 0.15

Same assay, conditions: AL4 20 μM, 2 h at 37 °C, PAE cells, read off a plot

Row | Variant | screen value (fraction of total)
3 | chain 1 I248F V249T L458F L459G | 0.17

Same assay, conditions: AL8 20 μM, 2 h at 37 °C, PAE cells, read off a plot

Row | Variant | screen value (fraction of total)
4 | chain 1 I248F V249T L458F L459G | 0.22

Same assay, conditions: vehicle, 2 h at 37 °C, PAE cells, read off a plot

Row | Variant | screen value (fraction of total)
5 | chain 1 I248F V249T L458F L459G | 0.17

Reference: paper PMC8010718, “Direct coupling of oligomerization and oligomerization-driven endocytosis of the dopamine transporter to its conformational mechanics and activity” (The Journal of Biological Chemistry, 2021)
